The record followed here is publication PMC7785527, “Human Short Peptidoglycan Recognition Protein PGLYRP1/Tag-7/PGRP-S Inhibits Listeria monocytogenes Intracellular Survival in Macrophages” (Frontiers in Cellular and Infection Microbiology, 2020).

This series concerns the molecule itself. Put plainly: SDS-PAGE without reducing agent (bands identified by MALDI-MS); 3 ug purified PGLYRP1; Laemmli loading buffer without beta-mercaptoethanol (compared with 5 mM beta-mercaptoethanol); Coomassie stained gel.

In general, stoichiometry N refers to a count of units in the complex or per binding partner.

B1: human recombinant PGLYRP1/Tag-7/PGRP-S with a C-terminal triple DED epitope (natural protein, UniProt O75594 22-196, looked up)
chain: QETEDPACCSPIVPRNEWKALASECAQHLSLPLRYVVVSHTAGSSCNTPASCQQQARNVQHYHMKTLGWCDVGYNFLIGEDGLVYEGRGWNFTGAHSGHLWNPMSIGISFMGNYMDRVPTPQAIRAAQGLLACGVAQGALRSNYVLKGHRDVQRTLSPGNQLYHLIQNWPHYRSP
notes: called full-sized / full-size; On non-reducing SDS-PAGE the preparation is a mix of monomer (~25 kDa) and disulfide-linked homodimer (~60 kDa) of similar intensity; also called recombinant tagged PGLYRP1
As to B1, the “stoichiometry N” value was found to be 2.
